The text below walks through data of the supplement of paper PMC10567573.

B1: EHMT1 (parent)
chain: EEINKNISDFGRQQLLPPFPSLHQ
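Also: lentivirally expressed fusions sorted by FACS into six bins by GFP to DsRed ratio, PSI derived from sequencing read proportions per bin multiplied by bin number.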

In the series the parent is B1. Description: protein stability index of a GFP-peptide fusion (GPS, HEK-293T) (PSI 1-6); higher = more stable. Particulars: c terminus: a fixed tail appended.
Take EEINKNISDFGRQPLLPPFPSLHQ [Q14P]: the protein stability index is 2.39.

Take EEINKNISDFGRQSLLPPFPSLHQ [Q14S]: the protein stability index stood at 2.62.

For EEINKNISDFGRQHLLPPFPSLHQ [Q14H], the protein stability index worked out at 2.29.

With EEINKNISDFGRQCLLPPFPSLHQ [Q14C], the protein stability index is 2.18.

For the variant EEINKNISDFGRQWLLPPFPSLHQ [Q14W], the protein stability index is 2.03.

Consider EEINKNISDFGRQILLPPFPSLHQ [Q14I], for which the protein stability index came to 2.77.

Take EEINKNISDFGRQTLLPPFPSLHQ [Q14T]: the protein stability index came to 2.45.

For the variant EEINKNISDFGRQELLPPFPSLHQ [Q14E], the protein stability index came out at 3.

Take EEINKNISDFGRQKLLPPFPSLHQ [Q14K]: the protein stability index was 2.84.

With EEINKNISDFGRQVLLPPFPSLHQ [Q14V], the protein stability index is 2.77.

For the variant EEINKNISDFGRQRLLPPFPSLHQ [Q14R], the protein stability index came to 2.45.

As for EEINKNISDFGRQLLLPPFPSLHQ [Q14L], the protein stability index was 2.31.

On to EEINKNISDFGRQNLLPPFPSLHQ [Q14N], for which the protein stability index was 2.54.

On to EEINKNISDFGRQDLLPPFPSLHQ [Q14D], for which the protein stability index is 2.84.

As for EEINKNISDFGRQALLPPFPSLHQ [Q14A], the protein stability index came out at 2.74.

For EEINKNISDFGRQFLLPPFPSLHQ [Q14F], the protein stability index came to 2.02.

EEINKNISDFGRQMLLPPFPSLHQ [Q14M]: the protein stability index amounted to 2.49.

With EEINKNISDFGRQGLLPPFPSLHQ [Q14G], the protein stability index is 2.92.

Turning to EEINKNISDFGRQYLLPPFPSLHQ [Q14Y], the protein stability index was 1.78.

Regarding EEINKNISDFGYQQLLPPFPSLHQ [R12Y], the protein stability index came out at 2.86.

For the variant EEINKNISDFGSQQLLPPFPSLHQ [R12S], the protein stability index worked out at 3.12.

Regarding EEINKNISDFGQQQLLPPFPSLHQ [R12Q], the protein stability index was found to be 2.97.

As for EEINKNISDFGTQQLLPPFPSLHQ [R12T], the protein stability index worked out at 3.52.

As for EEINKNISDFGPQQLLPPFPSLHQ [R12P], the protein stability index turned out to be 3.38.

With EEINKNISDFGWQQLLPPFPSLHQ [R12W], the protein stability index was 2.24.

EEINKNISDFGVQQLLPPFPSLHQ [R12V]: the protein stability index worked out at 3.25.

Take EEINKNISDFGRWQLLPPFPSLHQ [Q13W]: the protein stability index came to 2.23.

EEINKNISDFGRAQLLPPFPSLHQ [Q13A]: the protein stability index was 3.2.

Regarding EEINKNISDFGRPQLLPPFPSLHQ [Q13P], the protein stability index is 3.4.

EEINKNISDFGRDQLLPPFPSLHQ [Q13D]: the protein stability index turned out to be 3.25.

As for EEINKNISDFGRIQLLPPFPSLHQ [Q13I], the protein stability index was determined as 2.19.

As to EEINKNISDFGRMQLLPPFPSLHQ [Q13M], the protein stability index was 2.94.

For the variant EEINKNISDFGRVQLLPPFPSLHQ [Q13V], the protein stability index turned out to be 2.45.

Regarding EEINKNISDFGRGQLLPPFPSLHQ [Q13G], the protein stability index turned out to be 3.

Take EEINKNISDFGREQLLPPFPSLHQ [Q13E]: the protein stability index is 3.38.

With EEINKNISDFGRHQLLPPFPSLHQ [Q13H], the protein stability index worked out at 2.32.

In the case of EEINKNISDFGRKQLLPPFPSLHQ [Q13K], the protein stability index came out at 2.59.

For the variant EEINKNISDFGRTQLLPPFPSLHQ [Q13T], the protein stability index is 2.56.

Regarding EEINKNISDFGRYQLLPPFPSLHQ [Q13Y], the protein stability index was determined as 2.7.

For EEINKNISDFGRRQLLPPFPSLHQ [Q13R], the protein stability index stood at 2.42.

Turning to EEINKNISDFGRFQLLPPFPSLHQ [Q13F], the protein stability index was determined as 2.5.

For the variant EEINKNISDFGRNQLLPPFPSLHQ [Q13N], the protein stability index stood at 2.65.

In the case of EEINKNISDFGRCQLLPPFPSLHQ [Q13C], the protein stability index was determined as 2.06.

As to EEINKNISDFGRSQLLPPFPSLHQ [Q13S], the protein stability index turned out to be 2.75.

On to EEINKNISDFGRLQLLPPFPSLHQ [Q13L], for which the protein stability index came out at 2.48.

In the case of EEINKNISDFGRQQLLPPFPALHQ [S21A], the protein stability index amounted to 2.36.

On to EEINKNISDFGRQQLLPPFPKLHQ [S21K], for which the protein stability index amounted to 3.68.

On to EEINKNISDFGRQQLLPPFPQLHQ [S21Q], for which the protein stability index was found to be 3.33.

For EEINKNISDFGRQQLLPPFPDLHQ [S21D], the protein stability index came to 3.9.

Consider EEINKNISDFGRQQLLPPFPHLHQ [S21H], for which the protein stability index is 3.58.

Regarding EEINKNISDFGRQQLLPPFPWLHQ [S21W], the protein stability index is 1.98.

With EEINKNISDFGRQQLLPPFPYLHQ [S21Y], the protein stability index was found to be 2.54.

Take EEINKNISDFGRQQLLPPFPCLHQ [S21C]: the protein stability index was found to be 3.06.

On to EEINKNISDFGRQQLLPPFPGLHQ [S21G], for which the protein stability index was found to be 2.7.

For EEINKNISDFGRQQLLPPFPNLHQ [S21N], the protein stability index is 2.73.

Regarding EEINKNISDFGRQQLLPPFPLLHQ [S21L], the protein stability index is 2.9.

For EEINKNISDFGRQQLLPPFPPLHQ [S21P], the protein stability index worked out at 3.54.

Turning to EEINKNISDFGRQQLLPPFPVLHQ [S21V], the protein stability index turned out to be 2.82.

With EEINKNISDFGRQQLLPPFPILHQ [S21I], the protein stability index stood at 2.62.

Regarding EEINKNISDFGRQQLLPPFPMLHQ [S21M], the protein stability index worked out at 2.01.

For the variant EEINKNISDFGRQQLLPPFPFLHQ [S21F], the protein stability index worked out at 2.59.

With EEINKNISDFGRQQLLPPFPELHQ [S21E], the protein stability index was 3.59.

EEINKNISDFGRQQLLPPFPRLHQ [S21R]: the protein stability index is 3.21.

As to EEINKNISDFGRQQLLPPFPTLHQ [S21T], the protein stability index worked out at 3.

For the variant EEINKNISDFGRQQLLNPFPSLHQ [P17N], the protein stability index is 2.54.

Consider EEINKNISDFGRQQLLTPFPSLHQ [P17T], for which the protein stability index was determined as 2.41.

For EEINKNISDFGRQQLLWPFPSLHQ [P17W], the protein stability index worked out at 2.02.

As for EEINKNISDFGRQQLLKPFPSLHQ [P17K], the protein stability index came out at 3.09.

Turning to EEINKNISDFGRQQLLAPFPSLHQ [P17A], the protein stability index was determined as 2.79.

EEINKNISDFGRQQLLYPFPSLHQ [P17Y]: the protein stability index amounted to 2.54.

As to EEINKNISDFGRQQLLGPFPSLHQ [P17G], the protein stability index was found to be 2.83.

With EEINKNISDFGRQQLLDPFPSLHQ [P17D], the protein stability index was 2.74.

Regarding EEINKNISDFGRQQLLRPFPSLHQ [P17R], the protein stability index is 2.94.

As for EEINKNISDFGRQQLLFPFPSLHQ [P17F], the protein stability index is 2.02.

Regarding EEINKNISDFGRQQLLHPFPSLHQ [P17H], the protein stability index amounted to 2.52.

EEINKNISDFGRQQLLCPFPSLHQ [P17C]: the protein stability index amounted to 2.84.

With EEINKNISDFGRQQLLLPFPSLHQ [P17L], the protein stability index turned out to be 2.21.

In the case of EEINKNISDFGRQQLLMPFPSLHQ [P17M], the protein stability index turned out to be 2.27.

EEINKNISDFGRQQLLEPFPSLHQ [P17E]: the protein stability index was determined as 3.87.

Regarding EEINKNISDFGRQQLLQPFPSLHQ [P17Q], the protein stability index worked out at 3.27.

As to EEINKNISDFGRQQLLVPFPSLHQ [P17V], the protein stability index turned out to be 2.18.

As to EEINKNISDFGRQQLLSPFPSLHQ [P17S], the protein stability index came to 3.22.

With EEINKNISDFGRQQLLIPFPSLHQ [P17I], the protein stability index worked out at 1.82.

For EEINKNISDFGRQQLLPPFPSMHQ [L22M], the protein stability index came to 3.1.

For the variant EEINKNISDFGRQQLLPPFPSKHQ [L22K], the protein stability index was 4.33.

Consider EEINKNISDFGRQQLLPPFPSFHQ [L22F], for which the protein stability index was 2.79.

As to EEINKNISDFGRQQLLPPFPSGHQ [L22G], the protein stability index turned out to be 3.81.

Turning to EEINKNISDFGRQQLLPPFPSCHQ [L22C], the protein stability index came out at 3.82.

In the case of EEINKNISDFGRQQLLPPFPSEHQ [L22E], the protein stability index is 4.75.

Turning to EEINKNISDFGRQQLLPPFPSIHQ [L22I], the protein stability index was 3.18.

Regarding EEINKNISDFGRQQLLPPFPSHHQ [L22H], the protein stability index is 3.42.

EEINKNISDFGRQQLLPPFPSDHQ [L22D]: the protein stability index stood at 4.7.

For EEINKNISDFGRQQLLPPFPSAHQ [L22A], the protein stability index was 3.73.

Turning to EEINKNISDFGRQQLLPNFPSLHQ [P18N], the protein stability index is 3.05.
